US20210380994A1, “LACTOCOCCUS LACTIS EXPRESSION SYSTEM FOR DELIVERING PROTEINS EFFICACIOUS FOR THE TREATMENT OF EPITHELIAL BARRIER FUNCTION DISORDERS” (Second Genome, Inc., priority 2018, published 2021)

Test system: mice treated with DSS
Assay: DSS model of colitis with SG-11V5 protein and SG-11V5-expressing L. lactis (Example 22)
Assay type: in vivo
Method: Specifically, the mice in this Example 22 were treated with DSS, a chemical known to induce intestinal epithelial damage and thereby reduce intestinal barrier integrity and function. These DSS mice were then administered an L. lactis strain expressing SG-11V5 as described above, or a positive or negative control treatment.
In this study, 3 independent groups of mice (10 mice per group) were used to test the 3 different L. lactis strains: Group 1: L. lactis harboring parent pNZ8124 vector, Group 2: L. lactis harboring inducible SG-11V5 vector (PnisA:otsBA::PnisA:SPusp45:SG-11V5), and Group 3: L. lactis harboring constitutive SG-11V5 vector (PnisA:otsBA::Pusp45:SPusp45:SG-11V5). Each of the strains in Groups 1-3 had been grown until the cultures reached an OD600 of about 0.5, induced with nisin for 2 hours, concentrated to about 10^11 cells/mL in PBS with glycerol, and stored at −80° C. Cells were analyzed by Western blot to confirm protein expression. An additional 4 groups of mice (n=10 per group) were included as controls: Group 4: untreated; Group 5: treated p.o. with vehicle only; Group 6: intraperitoneal (i.p.) administration of Gly2-GLP2 (50 nmoles/kg); and Group 7: i.p. administration of SG-11V5 protein (160 nmoles/kg (4.0 mg/kg).
I.p. administration of Gly2-GLP2 and SG-11V5 was done twice per day, with i.p. administration to the right abdomen in the morning and to the left abdomen in the evening for 6 consecutive days (Day 0-Day 5) and then to the right abdomen on Day 6 prior to euthanasia and tissue recovery. Gly2-GLP2 (CPC Scientific Peptide Company) was prepared by dissolving in PBS(Corning 21-040-CV) with 5 mM NaOH to a concentration of 5 mg/mL Aliquots were stored at −80C prior to use.
Following a 7-day acclimation period, treatments wore initiated in the morning (AM) of Day 0 with i.p. administration of Gly2-GLP2 or purified SG-11V5 protein as a positive control, oral gavage of strain vehicle only (phosphate buffered saline (PBS; Corning 21-040-CV)), or with oral gavage administration of the appropriate L. lactis expression strain.
Fresh drinking water treated with 2.5% DSS was prepared and provided to all the mice on Days 0, 2, and 4 about 6 hours after AM dosing. […] Also, treatments were continued with the L. lactis strains described above once a day (q.d) in the morning with p.o. administration at 10^10 CFU of the strains comprising i) pNZ8124 vector, ii) inducible SG-11V5 vector, or iii) constitutive SG-11V5 vector.
On Day 6, only AM dosing was performed for intraperitoneal (i.p.) injection of protein and oral gavage (p.o) administration of L. lactis strains expressing SG-11V5 protein. Mice were fasted for 4 hours and then orally gavaged with 600 mg/kg 4KDa dextran labeled with fluorescin isothiocyanate (FITC) [4KDa-FITC]. About 50 minutes after the 4KDa-FITC gavage, mice were anesthetic with ketamine (ket)/xylazine (xyl) drug. Mice were injected with 10 ml/kg i.p of 10 mg/ml ketamine and 1 mg/ml xylazine (100 ul per 10 g body weight). One hour after administering 4KDa-FITC and about 10 minutes after ketamine/xylazine anesthesia, mice were euthanized, and blood and tissues were collected to assess barrier function and DSS model readouts. […]
Upon completion of the DSS models above, LBP levels were measured as an inflammation centric readout of barrier function following the protocol detailed above in Examples 7 and 13. […] LBP levels were measured in serum using a commercially available ELISA Kit (Enzo Life Sciences). […]

[1] = SG-11V5 protein 160 nmoles/kg i.p. b.i.d.

B1: SG-11V5: variant of SEQ ID NO:7 with N53S, N83S, C147V, C151S (protein)
chain: MLEGEESVVYVGKKGVIASLDVETLDQSYYDETELKSYVDAEVEDYTAEHGKSAVKVESLKVEDGVAKLKMKYKTPEDYTAFSGIELYQGKVVASLAAGYVYDGEFARVEEGKVVGAATKQDIYSEDDLKVAIIRANTDVKVDGEIVYVSSQNVKLTGKDSVSIRDGYYLETGSVTASVDVTGQESVGTEQLSGTEQMEMTGEPVNADDTEQTEAAAGDGSFETDVYTFIVYK
modifications: Artificial variant of SG-11 (N53S, N83S, C147V, C151S)
In the case of B1, the body weight (SG-11V5 160 nmoles/kg i.p. b.i.d., day 6) is reported as “significant improvement in body weight”, the colon length [1] is reported as “significant increase in the colon length” and the colon weight-to-length ratio [1] is reported as “significant decrease in the colon weight-to-length ratio”. For the same molecule, the “gross pathology (clinical score 0-5)” value (SG-11V5 protein 160 nmoles/kg i.p. b.i.d., p<0.0001) was “significant improvement in gross pathology” and the “4KDa-FITC dextran translocation across the epithelial barrier” value (SG-11V5 protein 160 nmoles/kg i.p. b.i.d., vs DSS + vehicle) was “non-significant increase”.
